Data on two sequences can be found in patent US11266642B2, “Small molecule inhibitors of HLA-DR3 binding for treating autoimmune thyroiditis” (ICAHN SCHOOL OF MEDICINE AT MOUNT SINAI, priority 2015, dated 2022).

No end group written: not given here. *: point of attachment. Biotin = O=C1N[C@H]2[C@H](CS[C@H]2CCCCC(=O)*)N1

The assay concerns the target T1, HLA-DR3 on VAVY cells (HLA-DRβ1-Arg74 positive) (Homo sapiens, UniProt P01903+P01911, A100K/A102G/A103R/A169T/F55Y/I96L/K41T/L162R/M171V/P40S/Q125H/Q178H/Q39Y/R42S/S66N/T106N/T262R/W38E/Y61H).
T1 construct: VAVY B-cell line that is homozygous for DR3 (confirmed to contain DRβ1-Arg74); host or cells: VAVY B-cell line
Description: Tg.2098 peptide binding to VAVY cells, flow cytometry. Type of assay: cell-based. Conditions: incubated without Ia (40% Captisol alone); biotinylated peptide. The method, then:
VAVY cells (European Collection of Cell Cultures) were cultured in RPMI (ATCC, Manassas, Va.) supplied with 10% FBS (Sigma-Aldrich, St. Louis, Mo.), 1% Penicillin-Streptomycin (Corning, N.Y.), 2 mM glutamine (Corning, N.Y.) and […] ciprofloxacin hydrochloride (Hospira, Lake Forest, Ill.). Cells were grown at 37° C., 5% CO2 and passaged 1-2 times a week. Cells expressing DR2 (National Development and Research Institutes, Inc) were cultured using the same conditions as VAVY cells. N-terminal biotinylated peptide Tg.2098 was used to test for binding to VAVY cells which express HLA-DR3 on their surface (HLA-DRβ1-Arg74 positive). APC Streptavidin (BD Biosciences, Franklin Lakes, N.J.) was used to detect the biotinylated peptides. A scrambled peptide of Tg.2098 (scr2098) was used as a negative control. VAVY cells were seeded at 2.5×10^6 cells/mL in a 24-well plate (BD Biosciences) and pre-incubated for 7 hours with 0.025 mM of compound Ia or 40% Captisol (Ligand Pharmaceuticals, Inc, La Jolla, Calif.) [the vehicle used to dissolve test compound in this experiment], before 0.5 μM Tg.2098 was added. After 24 h incubation, cells were stained with PE mouse anti-human HLA-DR (BD Biosciences) and APC Streptavidin to detect binding of the peptide to VAVY cells and the inhibitory effect of Compound Ia. Inhibition was analyzed by flow cytometry. As a negative control, cells expressing HLA-DR2 were pre-incubated with example Ia or 40% Captisol, before biotinylated myelin basic protein (MBP) 87-99 (known binder to HLA-DR2) was added and incubated for 24 hours. HLA-DR2 cells were stained with PE mouse anti-human HLA-DR and APC Streptavidin to detect binding of biotinylated MBP87-99 to DR2 expressing cells and to assess the inhibitory effect of compound Ia on peptide binding. To confirm the ELISA results we performed binding inhibition studies using the VAVY B-cell line that is homozygous for DR3 (confirmed to contain DRβ1-Arg74). […]
(Flow cytometry measures light scatter and fluorescence of single cells or particles in a stream.)

T1 sequence (P01903 26-254, other chains not shown): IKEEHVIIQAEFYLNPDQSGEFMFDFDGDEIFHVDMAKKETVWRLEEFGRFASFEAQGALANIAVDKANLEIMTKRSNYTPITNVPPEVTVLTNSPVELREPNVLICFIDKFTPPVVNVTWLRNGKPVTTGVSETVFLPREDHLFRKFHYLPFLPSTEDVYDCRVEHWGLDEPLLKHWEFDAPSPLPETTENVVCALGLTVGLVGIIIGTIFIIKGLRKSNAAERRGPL

For HDLFSRIDSSVVVVP [scr.2098], the “binding of peptide to HLA-DR3-positive VAVY cells” value is given as 2.1%.

“LSSVVVDPSIRHFDV (Biotin-LSSVVVDPSIRHFDV) [Tg.2098]”: the “binding of peptide to HLA-DR3-positive VAVY cells” value is reported as 42.7%.
